doi:10.1101/2024.04.22.590578

Tests used:
Test in all cases: crystal structure
[1] = molecular target: SARS-CoV-2 M^pro G15S (SARS-CoV-2)
[2] = molecular target: SARS-CoV-2 M^pro K90R (SARS-CoV-2)
[3] = molecular target: SARS-CoV-2 M^pro M49I (SARS-CoV-2)
[4] = molecular target: SARS-CoV-2 M^pro P132H (SARS-CoV-2)
[5] = molecular target: SARS-CoV-2 M^pro S46F (SARS-CoV-2)
[6] = molecular target: SARS-CoV-2 M^pro V186F (SARS-CoV-2)
[7] = molecular target: SARS-CoV-2 M^pro Y54C (SARS-CoV-2)

**Q.** SARS-CoV-2 M^pro G15S (enzyme) was tested. Which stoichiometry N [1] did it give?
**A.** The stoichiometry N was 2.

**Q.** How did the stoichiometry N [2] turn out when SARS-CoV-2 M^pro K90R (enzyme) was run?
**A.** The stoichiometry N was 2.

**Q.** With SARS-CoV-2 M^pro M49I (enzyme) as the substance, how does the stoichiometry N [3] read?
**A.** Its stoichiometry N is 2.

**Q.** For SARS-CoV-2 M^pro P132H (enzyme), which stoichiometry N [4] is on record?
**A.** Its stoichiometry N is 2.

**Q.** How did the stoichiometry N [5] turn out when SARS-CoV-2 M^pro S46F (enzyme) was run?
**A.** The stoichiometry N was 2.

**Q.** Which stoichiometry N [6] does the source give for SARS-CoV-2 M^pro V186F (enzyme) here?
**A.** Its stoichiometry N is 2.

**Q.** How did the stoichiometry N [7] turn out when SARS-CoV-2 M^pro Y54C (enzyme) was run?
**A.** Its stoichiometry N is 2.
